Results on seven molecules are retold here after PMC3585155, “CELF Family RNA–Binding Protein UNC-75 Regulates Two Sets of Mutually Exclusive Exons of the unc-32 Gene in Neuron-Specific Manners in Caenorhabditis elegans”.

Numbering of substitutions follows the chain as printed.

Among the targets are UNC-75(417-514) RRM3 (Caenorhabditis elegans, UniProt G5EE68 417-514); UNC-75(121-213) RRM2 (Caenorhabditis elegans, UniProt G5EE68 121-213); UNC-75(L431F) (Caenorhabditis elegans, UniProt G5EE68 1-514, L431F); UNC-75 (Caenorhabditis elegans, UniProt G5EE68 1-514); UNC-75(1-114) RRM1 (Caenorhabditis elegans, UniProt G5EE68 1-114).
Holding throughout (test): EMSA; EMSA as described previously (ref 55); buffer, salt, pH and temperature not given
Holding throughout (details): protein: recombinant; tags: FLAG; label: 32P
For orientation: A gel shift assay detects complexes by their altered migration in electrophoresis.

A further series addresses T1, ASD-1 (Caenorhabditis elegans, UniProt G5EEW7 1-404).
T1 sequence: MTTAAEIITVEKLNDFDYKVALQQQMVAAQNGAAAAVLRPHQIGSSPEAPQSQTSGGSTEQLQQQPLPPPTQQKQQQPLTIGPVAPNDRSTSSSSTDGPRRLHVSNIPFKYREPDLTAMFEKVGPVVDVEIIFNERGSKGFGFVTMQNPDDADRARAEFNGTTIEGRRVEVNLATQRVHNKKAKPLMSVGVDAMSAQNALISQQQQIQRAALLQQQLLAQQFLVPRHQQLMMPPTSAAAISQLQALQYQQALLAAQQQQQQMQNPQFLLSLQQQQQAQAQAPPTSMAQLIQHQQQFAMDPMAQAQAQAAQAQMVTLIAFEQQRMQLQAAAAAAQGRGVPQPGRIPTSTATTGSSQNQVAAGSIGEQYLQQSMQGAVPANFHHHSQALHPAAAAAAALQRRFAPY

A further series concerns the target T2, FOX-1 (Caenorhabditis elegans, UniProt Q10572 1-429).
T2 sequence: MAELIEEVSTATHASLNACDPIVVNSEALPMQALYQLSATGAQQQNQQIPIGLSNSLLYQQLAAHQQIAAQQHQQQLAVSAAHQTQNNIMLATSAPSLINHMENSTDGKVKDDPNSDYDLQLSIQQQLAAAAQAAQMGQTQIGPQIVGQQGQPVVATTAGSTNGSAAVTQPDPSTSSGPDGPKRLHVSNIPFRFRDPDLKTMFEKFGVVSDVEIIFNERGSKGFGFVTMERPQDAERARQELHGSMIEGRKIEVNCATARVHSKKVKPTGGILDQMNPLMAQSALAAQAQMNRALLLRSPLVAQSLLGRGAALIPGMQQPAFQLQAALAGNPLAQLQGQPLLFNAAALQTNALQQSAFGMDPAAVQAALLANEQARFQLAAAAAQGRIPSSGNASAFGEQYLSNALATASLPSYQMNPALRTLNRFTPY

Consider GGGAGAGGUGAUGGGUAGUUUUUGCAUGAUUGU (ssRNA) [intron 7b WT probe], for which the binding result with ASD-1 and in the series with FOX-1 was “binds” each time.

B1: Probe 2-1-1 (also printed 2-2-1) (ssRNA)
RNA: GGGAGAUUAGCACGCACCCGCCUUCUACUGUCCCGUUACUUUUUGUUGUGUUGU
Consider B1, for which the binding result is listed as “binds” with UNC-75(417-514) RRM3; “no binding” in the series with UNC-75(121-213) RRM2; “no binding” in the series with UNC-75(L431F); “binds” with UNC-75; “no binding” with UNC-75(1-114) RRM1.

B2: Probe 2-1-1a (ssRNA)
RNA: B1 RNA with G10A, C11A, C13A, G14A, C15A
In the case of B2, the binding result with UNC-75(417-514) RRM3 and with UNC-75 was “binds” in each case.

B3: Probe 2-1-1c (ssRNA)
RNA: B1 RNA with C25A, C28A, G30A
For the molecule B3, the binding result with UNC-75(417-514) RRM3 and in the series with UNC-75 was “binds” each time.

B4: Probe 2-1-1d (ssRNA)
RNA: B1 RNA with C32A, C33A, C34A, G35A, C39A
For B4, the binding result with UNC-75(417-514) RRM3 and with UNC-75 was “binds” each time.

B5: Probe 2-1-1b (ssRNA)
RNA: B1 RNA with C17A, C18A, C19A, G20A, C21A, C22A
In the case of B5, the binding result with UNC-75(417-514) RRM3 and with UNC-75 was “binds” in each case.

B6: Probe 2-1-1e (ssRNA)
RNA: B1 RNA with G45A, G48A, G50A, G53A
As for B6, the binding result in the series with UNC-75(417-514) RRM3 and in the series with UNC-75 was “no binding” in each case.
